Laboratory results from article PMC3138737, “Interaction between the Triglyceride Lipase ATGL and the Arf1 Activator GBF1” (PLoS ONE, 2011).

T1: GST-tagged ATGL(300–504) (human, UniProt Q96AD5 300-504)
T1 construct: source: E. coli BL21(DE3), purified (glutathione Sepharose 4B, Sephacryl S-200)
T1 sequence (looked up): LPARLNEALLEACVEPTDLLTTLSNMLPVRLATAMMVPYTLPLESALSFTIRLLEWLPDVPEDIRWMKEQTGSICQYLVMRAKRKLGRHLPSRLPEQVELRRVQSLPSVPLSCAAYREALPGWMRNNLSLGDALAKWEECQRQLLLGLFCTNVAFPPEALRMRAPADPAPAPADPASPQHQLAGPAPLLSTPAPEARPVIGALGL


How the values were obtained:
[1] = target: Venus-tagged full-length GBF1 D544A (human) (UniProt Q92538); assay: co-IP; Cos7 cells co-transfected with HA-tagged ATGL constructs and Venus-tagged constructs; IP with anti-GFP, blot with anti-HA; lysis in 50 mM Tris-HCl pH 7.5, 100 mM NaCl, 1 mM EDTA, 0.5% NP40; 4°C
[2] = target: Venus-tagged GBF1 HDS1 domain (human); assay: as above
[3] = target: Venus-ΔDCB-GBF1 (human); assay: as above
[4] = target: Venus-tagged N-GBF1 D544A (human); assay: as above
[5] = target: T1, GST-tagged ATGL(300–504); assay: pull-down; quantitative: 0.1 nmole His-Sec7-GBF1(710–894) immobilised on Ni Sepharose, 1–20 µM GST-tagged ATGL(300–504) added; anti-GST immunoblot, bound versus free, Scatchard analysis; apparent Kd; settings: both partners purified

Venus-tagged GBF1 HDS1 domain (human), sequence (Q92538 688-888): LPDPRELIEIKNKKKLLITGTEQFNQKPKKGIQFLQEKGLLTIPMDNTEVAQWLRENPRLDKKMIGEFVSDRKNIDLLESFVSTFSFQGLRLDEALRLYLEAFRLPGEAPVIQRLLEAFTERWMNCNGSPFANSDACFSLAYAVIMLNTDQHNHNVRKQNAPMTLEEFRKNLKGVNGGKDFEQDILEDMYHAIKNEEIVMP
Venus-ΔDCB-GBF1 (human), sequence (Q92538 whole entry, stated change not applied): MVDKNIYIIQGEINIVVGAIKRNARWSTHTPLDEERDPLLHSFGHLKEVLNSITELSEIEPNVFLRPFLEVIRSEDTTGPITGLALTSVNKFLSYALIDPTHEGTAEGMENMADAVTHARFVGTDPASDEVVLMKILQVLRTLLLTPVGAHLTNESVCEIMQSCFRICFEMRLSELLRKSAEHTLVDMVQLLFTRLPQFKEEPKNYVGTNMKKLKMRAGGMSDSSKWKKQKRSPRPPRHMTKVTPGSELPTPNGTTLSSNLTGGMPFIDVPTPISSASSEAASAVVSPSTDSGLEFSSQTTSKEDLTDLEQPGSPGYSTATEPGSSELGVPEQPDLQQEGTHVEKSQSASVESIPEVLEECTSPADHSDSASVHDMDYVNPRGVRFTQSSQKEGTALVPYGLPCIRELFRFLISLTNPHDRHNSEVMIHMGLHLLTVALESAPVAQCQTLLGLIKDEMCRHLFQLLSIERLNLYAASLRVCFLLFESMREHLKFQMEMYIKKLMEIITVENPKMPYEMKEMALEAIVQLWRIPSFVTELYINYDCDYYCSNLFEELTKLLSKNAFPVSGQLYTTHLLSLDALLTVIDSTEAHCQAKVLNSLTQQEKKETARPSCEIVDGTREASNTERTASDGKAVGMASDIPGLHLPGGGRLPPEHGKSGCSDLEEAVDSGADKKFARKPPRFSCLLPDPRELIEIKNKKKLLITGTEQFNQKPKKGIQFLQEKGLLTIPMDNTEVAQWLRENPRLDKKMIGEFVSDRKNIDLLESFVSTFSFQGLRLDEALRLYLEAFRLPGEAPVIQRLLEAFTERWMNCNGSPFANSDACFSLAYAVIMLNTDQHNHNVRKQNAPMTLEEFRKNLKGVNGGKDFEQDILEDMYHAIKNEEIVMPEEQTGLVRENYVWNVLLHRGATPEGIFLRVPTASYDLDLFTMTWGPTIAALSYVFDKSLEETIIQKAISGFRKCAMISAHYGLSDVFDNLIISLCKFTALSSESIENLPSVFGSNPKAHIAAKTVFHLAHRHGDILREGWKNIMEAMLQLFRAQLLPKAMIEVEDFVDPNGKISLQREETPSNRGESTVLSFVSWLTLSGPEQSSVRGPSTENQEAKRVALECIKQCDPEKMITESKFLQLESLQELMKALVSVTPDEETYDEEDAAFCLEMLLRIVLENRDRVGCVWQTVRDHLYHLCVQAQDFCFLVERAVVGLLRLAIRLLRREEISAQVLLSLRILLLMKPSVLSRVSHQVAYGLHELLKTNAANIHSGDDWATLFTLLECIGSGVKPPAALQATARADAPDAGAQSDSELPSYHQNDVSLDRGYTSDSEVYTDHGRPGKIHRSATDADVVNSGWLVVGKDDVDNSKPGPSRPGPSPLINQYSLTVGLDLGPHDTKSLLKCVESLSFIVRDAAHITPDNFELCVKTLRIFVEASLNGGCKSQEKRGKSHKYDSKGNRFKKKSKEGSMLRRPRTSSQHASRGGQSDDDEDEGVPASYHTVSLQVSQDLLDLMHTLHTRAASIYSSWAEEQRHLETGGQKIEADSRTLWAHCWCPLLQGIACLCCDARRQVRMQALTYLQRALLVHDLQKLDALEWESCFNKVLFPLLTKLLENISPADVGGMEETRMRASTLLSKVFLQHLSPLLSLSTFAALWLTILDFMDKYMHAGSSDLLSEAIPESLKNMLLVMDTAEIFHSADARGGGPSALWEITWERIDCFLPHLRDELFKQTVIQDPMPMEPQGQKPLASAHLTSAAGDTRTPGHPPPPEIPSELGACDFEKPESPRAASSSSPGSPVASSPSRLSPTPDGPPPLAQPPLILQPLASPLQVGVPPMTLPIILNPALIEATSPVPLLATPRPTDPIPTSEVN
Venus-tagged full-length GBF1 D544A (human), sequence (Q92538 other isoform, or with tags, fused parts or gaps, stated change not applied): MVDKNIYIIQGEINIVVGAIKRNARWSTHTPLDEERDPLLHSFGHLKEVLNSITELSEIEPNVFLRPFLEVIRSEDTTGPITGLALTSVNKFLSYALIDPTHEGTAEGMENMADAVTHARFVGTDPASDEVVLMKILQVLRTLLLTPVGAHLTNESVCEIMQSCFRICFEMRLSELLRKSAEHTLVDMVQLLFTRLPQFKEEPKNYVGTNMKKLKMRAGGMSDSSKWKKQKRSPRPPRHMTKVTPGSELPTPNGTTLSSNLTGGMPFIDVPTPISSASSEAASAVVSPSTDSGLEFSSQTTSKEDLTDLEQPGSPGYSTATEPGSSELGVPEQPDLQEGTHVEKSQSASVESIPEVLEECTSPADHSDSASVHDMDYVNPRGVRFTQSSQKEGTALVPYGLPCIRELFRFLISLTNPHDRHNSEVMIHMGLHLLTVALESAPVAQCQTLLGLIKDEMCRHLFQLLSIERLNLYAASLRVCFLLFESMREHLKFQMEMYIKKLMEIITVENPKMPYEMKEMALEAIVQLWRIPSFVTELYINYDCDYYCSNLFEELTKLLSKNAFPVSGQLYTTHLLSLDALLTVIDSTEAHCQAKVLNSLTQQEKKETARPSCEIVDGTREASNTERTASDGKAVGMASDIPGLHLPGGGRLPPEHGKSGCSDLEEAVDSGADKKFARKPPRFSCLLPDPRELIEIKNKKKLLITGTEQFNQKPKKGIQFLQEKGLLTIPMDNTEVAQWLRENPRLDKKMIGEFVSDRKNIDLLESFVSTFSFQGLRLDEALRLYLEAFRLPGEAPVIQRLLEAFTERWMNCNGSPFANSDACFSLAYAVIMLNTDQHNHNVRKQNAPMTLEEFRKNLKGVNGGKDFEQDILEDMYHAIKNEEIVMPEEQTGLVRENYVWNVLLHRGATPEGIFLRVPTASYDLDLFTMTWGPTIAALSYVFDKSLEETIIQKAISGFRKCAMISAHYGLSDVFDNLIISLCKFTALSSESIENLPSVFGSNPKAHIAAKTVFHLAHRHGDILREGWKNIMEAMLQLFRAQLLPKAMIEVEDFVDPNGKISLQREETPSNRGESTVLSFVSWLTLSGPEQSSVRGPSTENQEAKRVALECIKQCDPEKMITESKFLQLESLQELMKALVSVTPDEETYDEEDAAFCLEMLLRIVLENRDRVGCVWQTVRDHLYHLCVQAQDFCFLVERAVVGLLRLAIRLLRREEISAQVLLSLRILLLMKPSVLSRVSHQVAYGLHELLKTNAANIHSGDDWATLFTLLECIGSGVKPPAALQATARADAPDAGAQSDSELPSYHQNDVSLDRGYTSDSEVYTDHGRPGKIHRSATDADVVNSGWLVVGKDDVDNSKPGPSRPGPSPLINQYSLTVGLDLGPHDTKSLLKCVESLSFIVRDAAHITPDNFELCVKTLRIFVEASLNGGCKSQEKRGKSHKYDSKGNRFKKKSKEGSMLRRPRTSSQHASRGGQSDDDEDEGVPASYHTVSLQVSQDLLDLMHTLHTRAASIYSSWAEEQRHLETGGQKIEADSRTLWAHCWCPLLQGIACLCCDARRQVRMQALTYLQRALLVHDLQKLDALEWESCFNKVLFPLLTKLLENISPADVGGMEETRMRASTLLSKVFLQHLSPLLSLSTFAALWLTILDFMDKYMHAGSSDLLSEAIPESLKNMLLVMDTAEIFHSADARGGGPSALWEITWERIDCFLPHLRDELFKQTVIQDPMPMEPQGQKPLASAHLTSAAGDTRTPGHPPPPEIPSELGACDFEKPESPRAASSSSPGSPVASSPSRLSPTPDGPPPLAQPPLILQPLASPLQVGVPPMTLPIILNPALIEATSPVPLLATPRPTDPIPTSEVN

| fold level of interaction over wild type GBF1 [1] [fold] | percent of ATGL recovered in the co-IP [2] [%] | fold level of interaction over wild type GBF1 [3] [fold] | fold level of interaction over the wild type N-terminal region [4] [fold] | Kd [5] [nM] | Binder |
| --- | --- | --- | --- | --- | --- |
| 10 | 10 | 10 | 5 to 10 |  | HA-tagged H. sapiens ATGL (full-length) (natural protein) MFPREKTWNISFAGCGFLGVYYVGVASCLREHAPFLVANATHIYGASAGALTATALVTGVCLGEAGAKFIEVSKEARKRFLGPLHPSFNLVKIIRSFLLKVLPADSHEHASGRLGISLTRVSDGENVIISHFNSKDELIQANVCSGFIPVYCGLIPPSLQGVRYVDGGISDNLPLYELKNTITVSPFSGESDICPQDSSTNIHELRVTNTSIQFNLRNLYRLSKALFPPEPLVLREMCKQGYRDGLRFLQRNGLLNRPNPLLALPPARPHGPEDKDQAVESAQAEDYSQLPGEDHILEHLPARLNEALLEACVEPTDLLTTLSNMLPVRLATAMMVPYTLPLESALSFTIRLLEWLPDVPEDIRWMKEQTGSICQYLVMRAKRKLGRHLPSRLPEQVELRRVQSLPSVPLSCAAYREALPGWMRNNLSLGDALAKWEECQRQLLLGLFCTNVAFPPEALRMRAPADPAPAPADPASPQHQLAGPAPLLSTPAPEARPVIGALGL |
|  |  |  |  | 2500 ± 300 | His-Sec7-GBF1(710–894) (domain or fragment, human, UniProt Q92538-1 710-894, looked up, Sec7 domain, residues 710-894; the end of the His tag is read from the printed name; vector pBAD/His C; also called His-tagged Sec7 domain of GBF1; His-Sec7-GBF1 fragment; not shown: His tag, N-terminal, kept) FNQKPKKGIQFLQEKGLLTIPMDNTEVAQWLRENPRLDKKMIGEFVSDRKNIDLLESFVSTFSFQGLRLDEALRLYLEAFRLPGEAPVIQRLLEAFTERWMNCNGSPFANSDACFSLAYAVIMLNTDQHNHNVRKQNAPMTLEEFRKNLKGVNGGKDFEQDILEDMYHAIKNEEIVMPEEQTGLV |
